A word on the Kd: it is the constant that tells how readily two partners part at equilibrium. One may read the koff as the rate constant with which the complex falls apart. What is called kon is the second-order rate constant of association.

Our source for the Kd, koff and kon values is publication PMC9454698.

In the test the target is stanniocalcin 2 (STC2), recombinant (mouse) (UniProt O88452). Kind of test: quartz crystal microbalance (QCM); STC2 (50 µg/mL) immobilised by amine coupling on LNB chip, Attana Cell 200; HRG injected at 50, 100 and 200 nM; PBS running buffer, 10 µL/min, 22 °C, 500 s dissociation; 1:1 global interaction model.
Sequence of UniProt O88452 (O88452 25-296): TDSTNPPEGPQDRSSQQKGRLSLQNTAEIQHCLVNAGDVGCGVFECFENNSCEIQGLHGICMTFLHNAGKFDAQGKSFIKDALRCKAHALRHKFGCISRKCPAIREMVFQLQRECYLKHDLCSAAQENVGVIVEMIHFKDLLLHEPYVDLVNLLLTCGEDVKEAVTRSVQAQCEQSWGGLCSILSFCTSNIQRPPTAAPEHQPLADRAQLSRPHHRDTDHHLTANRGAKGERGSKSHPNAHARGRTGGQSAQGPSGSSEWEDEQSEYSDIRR

For “histidine-rich glycoprotein (HRG), recombinant, active (from UniProt Q9ESB3 19-525) (natural protein)”, the Kd came out at 55 nM, the off-rate constant (koff) came out at 0.0014 s⁻¹ and the on-rate constant (kon) amounted to 26000 M⁻¹ s⁻¹.
